Earlier results on two substances are cited in article PMC8355678.

As usually defined, the Kd is the free concentration of one partner at which half of the binding sites on the other are occupied at equilibrium, for simple one-to-one binding.

Data set [1] deals with CCL2 receptor on monocytes (Homo sapiens) (UniProt P41597).
Another data set concerns the target CXCR3 (Homo sapiens) (UniProt P49682).
Sequence of UniProt P49682 (P49682 whole entry): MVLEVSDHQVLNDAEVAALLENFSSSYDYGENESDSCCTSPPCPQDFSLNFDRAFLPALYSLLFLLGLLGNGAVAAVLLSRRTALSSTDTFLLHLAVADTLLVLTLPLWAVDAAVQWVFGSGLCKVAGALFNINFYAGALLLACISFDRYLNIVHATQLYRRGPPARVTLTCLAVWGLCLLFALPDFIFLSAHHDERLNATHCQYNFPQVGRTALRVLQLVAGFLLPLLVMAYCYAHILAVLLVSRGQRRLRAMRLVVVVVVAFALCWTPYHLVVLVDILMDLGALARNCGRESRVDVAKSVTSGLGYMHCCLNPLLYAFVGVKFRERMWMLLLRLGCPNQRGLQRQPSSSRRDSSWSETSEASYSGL

Sequence of CCL2 (P13500 24-99): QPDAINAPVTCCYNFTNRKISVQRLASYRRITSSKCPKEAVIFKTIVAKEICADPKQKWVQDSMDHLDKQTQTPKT
Sequence of UniProt P41597 (P41597 whole entry): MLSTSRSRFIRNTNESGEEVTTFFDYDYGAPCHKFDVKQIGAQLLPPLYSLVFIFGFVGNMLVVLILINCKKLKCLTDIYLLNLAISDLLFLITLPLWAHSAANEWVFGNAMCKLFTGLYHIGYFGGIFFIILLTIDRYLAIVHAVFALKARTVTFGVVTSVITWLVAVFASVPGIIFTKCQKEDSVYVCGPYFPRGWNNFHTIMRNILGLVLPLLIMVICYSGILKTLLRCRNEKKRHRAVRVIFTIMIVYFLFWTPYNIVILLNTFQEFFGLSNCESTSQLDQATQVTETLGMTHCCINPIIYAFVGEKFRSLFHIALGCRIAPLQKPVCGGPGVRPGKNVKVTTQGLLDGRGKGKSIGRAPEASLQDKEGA

As for CCL2 (from UniProt P13500), in data set [1], the Kd is 0.77 nM. With CXCL10 (from UniProt P02778), in the data set with CXCR3 (Homo sapiens), the Kd was 0.25 nM.
